Experimental data from paper PMC12009342.
pKd: −log10 of the molar value.

Experiments:
[1] = biological target: HIV-1 Env antigen (BG505 SOSIP.664 gp140-his) (HIV-1 (BG505)) (UniProt Q2N0S6); assay: SEC-MALS; Fab/antigen mixtures; Fab and HIV Env trimer mixed 3:1, Fab and EGFR or Nkp30 mixed 1:1; Superdex 200 Increase 10/300 GL, PBS with 200 ppm sodium azide, 1 mL/min
[2] = biological target: HIV-1 Env antigen (BG505 SOSIP.664 gp140-his) (HIV-1 (BG505)) (UniProt Q2N0S6); assay: BLI; BLItz; His-tagged antigen captured on Anti-Penta-HIS (HIS1K) biosensor at 25 ng/µL for 300 s; Fab in solution at 4 concentrations; association 180 s, dissociation 300 s in PBS

Question: What does the source list for “NC-Cow1 Fab ulCDR-swap variant var1 (ulCDR of NC-Cow2)”?
Answer: stoichiometry N [1]: 1; pKd [2]: 6.90
